Results on two molecules are retold here after paper PMC12915131, “Balanced Expression of the Diiron Oxygenase BioE Is Essential for Biotin Homeostasis in Elizabethkingia meningoseptica”.

The data set deals with BioL (EmBioL), MocR-family repressor (Elizabethkingia meningoseptica, UniProt A0A1T3FDC7 1-495). Description: EMSA; PLP in protein elution buffer; 5 mM Mg2+; EMSA: 20 mM Tris-HCl pH 8.0, 50 mM KCl, 5 mM MgCl2, 1 mM DTT, 5% glycerol, room temperature 20 min; 5% native PAGE, GelRed stain. The settings on record: protein: recombinant; tags: tag-free after Ulp1 cleavage of GST-SUMO; chain copies: 2; blunt. Background: In EMSA bound probe runs differently from free probe, usually more slowly.

B1: PbioB probe (dsDNA)
DNA 1: TGCTTTTATCAAACTCATGTGTAATTACTCTGGTAATCTATATGATTAAGATTTAGAAG
DNA 2: CTTCTAAATCTTAATCATATAGATTACCAGAGTAATTACACATGAGTTTGATAAAAGCA
As for B1, the binding result is reported as “binds”.

B2: PbioE probe (dsDNA)
DNA 1: TTTTAAATCTGGTACCATTTAAGGTCCGGCAAGATAATAATTTTGCTTCAAAAAAGAG
DNA 2: CTCTTTTTTGAAGCAAAATTATTATCTTGCCGGACCTTAAATGGTACCAGATTTAAAA
Take B2: the binding result is reported as “binds”.
